Kd data for 1 molecule are collected here from US20220213227A1 (published 2022).

The target of this assay is T1, soluble extracellular region of cynomolgus monkey CD38 antigen fused to a 6-His-tag (UniProt Q5VAN0 45-301).
T1 chain: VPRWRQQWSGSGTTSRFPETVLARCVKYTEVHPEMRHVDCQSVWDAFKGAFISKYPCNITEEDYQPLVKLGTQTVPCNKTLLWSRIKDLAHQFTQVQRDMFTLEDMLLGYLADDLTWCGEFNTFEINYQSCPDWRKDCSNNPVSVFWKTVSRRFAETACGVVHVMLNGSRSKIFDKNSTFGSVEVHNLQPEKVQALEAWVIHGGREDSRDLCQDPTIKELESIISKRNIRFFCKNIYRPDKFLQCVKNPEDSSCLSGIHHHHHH
The experiment in a line: SPR. Background: Surface plasmon resonance follows binding to a sensor surface in real time, without labels.

B1: chimeric 9G7 antibody (antibody, V domains shown)
VH: QVTLKESGPGILQPSQTLSLTCSFSGLSLSTSGKGVGWIRQPSGKGLEWLAHIWWDDDKRYNPALKSRLTISKDTSSNQVFLKIASVDTADTATYYCARIELGRSYVMDYWGQGTTVTVSS
VL: DIVMTQSHKFMSTSVGDRVSISCKASQDVITSVAWFQQKPGQSPKLLIYSASYRYTGVPDRFTGSGSGTDFTFTISSVQAEDLAVYYCQQHYTIPLTFGAGTKLELKR
B1: the Kd (as a rule, the equilibrium constant for the complex coming apart) is 1 nM.
